# Experimental data from paper doi:10.1101/2022.11.07.515429 (bioRxiv, 2022).
# T1: Strep-PRP5 (human, UniProt Q7L014 1-1031)
# T1 sequence: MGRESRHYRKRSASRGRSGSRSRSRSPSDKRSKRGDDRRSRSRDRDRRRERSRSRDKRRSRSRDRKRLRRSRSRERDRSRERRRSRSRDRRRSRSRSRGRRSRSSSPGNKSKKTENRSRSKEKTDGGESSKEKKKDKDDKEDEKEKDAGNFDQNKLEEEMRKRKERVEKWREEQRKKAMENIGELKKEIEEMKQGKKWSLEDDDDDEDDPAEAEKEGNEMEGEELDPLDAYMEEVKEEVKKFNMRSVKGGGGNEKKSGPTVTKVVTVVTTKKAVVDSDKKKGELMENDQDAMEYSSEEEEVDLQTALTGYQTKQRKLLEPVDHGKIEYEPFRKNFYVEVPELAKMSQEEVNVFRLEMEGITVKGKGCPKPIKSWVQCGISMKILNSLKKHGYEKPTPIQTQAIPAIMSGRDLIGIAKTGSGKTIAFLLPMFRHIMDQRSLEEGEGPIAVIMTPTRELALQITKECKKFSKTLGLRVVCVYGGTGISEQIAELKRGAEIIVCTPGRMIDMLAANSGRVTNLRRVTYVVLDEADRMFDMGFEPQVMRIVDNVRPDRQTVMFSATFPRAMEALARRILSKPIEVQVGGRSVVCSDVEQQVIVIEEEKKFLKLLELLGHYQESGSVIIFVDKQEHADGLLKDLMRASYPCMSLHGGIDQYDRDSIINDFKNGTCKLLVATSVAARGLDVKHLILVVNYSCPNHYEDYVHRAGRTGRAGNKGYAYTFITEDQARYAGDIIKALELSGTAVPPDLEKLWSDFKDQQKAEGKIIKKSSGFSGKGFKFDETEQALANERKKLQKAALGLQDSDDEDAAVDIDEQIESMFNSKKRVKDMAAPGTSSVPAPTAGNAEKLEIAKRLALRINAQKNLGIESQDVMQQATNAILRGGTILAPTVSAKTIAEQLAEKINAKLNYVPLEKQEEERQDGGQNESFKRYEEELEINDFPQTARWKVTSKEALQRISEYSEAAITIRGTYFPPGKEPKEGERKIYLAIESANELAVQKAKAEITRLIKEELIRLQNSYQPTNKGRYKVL
# Target: T1, Strep-PRP5
# Test: pull-down
binder,measurement,value
"Flag-tagged SF3B1 K700E (natural protein, human, UniProt O75533 1-1304, looked up) MAKIAKTHEDIEAQIREIQGKKAALDEAQGVGLDSTGYYDQEIYGGSDSRFAGYVTSIAATELEDDDDDYSSSTSLLGQKKPGYHAPVALLNDIPQSTEQYDPFAEHRPPKIADREDEYKKHRRTMIISPERLDPFADGGKTPDPKMNARTYMDVMREQHLTKEEREIRQQLAEKAKAGELKVVNGAAASQPPSKRKRRWDQTADQTPGATPKKLSSWDQAETPGHTPSLRWDETPGRAKGSETPGATPGSKIWDPTPSHTPAGAATPGRGDTPGHATPGHGGATSSARKNRWDETPKTERDTPGHGSGWAETPRTDRGGDSIGETPTPGASKRKSRWDETPASQMGGSTPVLTPGKTPIGTPAMNMATPTPGHIMSMTPEQLQAWRWEREIDERNRPLSDEELDAMFPEGYKVLPPPAGYVPIRTPARKLTATPTPLGGMTGFHMQTEDRTMKSVNDQPSGNLPFLKPDDIQYFDKLLVDVDESTLSPEEQKERKIMKLLLKIKNGTPPMRKAALRQITDKAREFGAGPLFNQILPLLMSPTLEDQERHLLVKVIDRILYKLDDLVRPYVHKILVVIEPLLIDEDYYARVEGREIISNLAKAAGLATMISTMRPDIDNMDEYVRNTTARAFAVVASALGIPSLLPFLKAVCKSKKSWQARHTGIKIVQQIAILMGCAILPHLRSLVEIIEHGLVDEQQEVRTISALAIAALAEAATPYGIESFDSVLKPLWKGIRQHRGKGLAAFLKAIGYLIPLMDAEYANYYTREVMLILIREFQSPDEEMKKIVLKVVKQCCGTDGVEANYIKTEILPPFFKHFWQHRMALDRRNYRQLVDTTVELANKVGAAEIISRIVDDLKDEAEQYRKMVMETIEKIMGNLGAADIDHKLEEQLIDGILYAFQEQTTEDSVMLNGFGTVVNALGKRVKPYLPQICGTVLWRLNNKSAKVRQQAADLISRTAVVMKTCQEEKLMGHLGVVLYEYLGEEYPEVLGSILGALKAIVNVIGMHKMTPPIKDLLPRLTPILKNRHEKVQENCIDLVGRIADRGAEYVSAREWMRICFELLELLKAHKKAIRRATVNTFGYIAKAIGPHDVLATLLNNLKVQERQNRVCTTVAIAIVAETCSPFTVLPALMNEYRVPELNVQNGVLKSLSFLFEYIGEMGKDYIYAVTPLLEDALMDRDLVHRQTASAVVQHMSLGVYGFGCEDSLNHLLNYVWPNVFETSPHVIQAVMGALEGLRVAIGPCRMLQYCLQGLFHPARKVRDVYWKIYNSIYIGSQDALIAHYPRIYNDDKNTYIRYELDYIL","relative binding ratio (pulldown over input, normalised to WT)",64 percent
